{"source": "patent US20230287433", "about": "“APTAMERS FOR PERSONAL HEALTH CARE APPLICATIONS” (The Procter & Gamble Company, published 2023)", "binders": {"B1": {"name": "Nas.R-1 (ssRNA)", "RNA": "GGGUGCAUCGUUUACGCGAUUAGUCUGAUAAACAAAAAGAUUUCGCUAAAAAUCAAUCUGCUGCUGAGGAAGGAUAUGAG", "modifications": "2'-F pyrimidines (all C and U)"}, "B2": {"name": "Nas.R-4 (ssRNA)", "RNA": "GGGUGCAUCGUUUACGCGCAACAUAAAAAUUUAAAGUGCUCAGUUGUCAAUCUAUGACUGCUGCUGAGGAAGGAUAUGAG", "modifications": "2'-F pyrimidines (all C and U)"}, "B3": {"name": "Nas.R-8 (ssRNA)", "RNA": "GGGUGCAUCGUUUACGCGUAAAAAUUAAAGAGAUUAAGGUCCUUAAGCAGUUUUGUCCUGCUGCUGAGGAAGGAUAUGAG", "modifications": "2'-F pyrimidines (all C and U)"}, "B4": {"name": "Nas.R-2 (ssRNA)", "RNA": "GGGUGCAUCGUUUACGCAGAUAGCAGCAGGAAUCAAGCGGUAGGAGUCUAGCAGAAGCUGCUGCUGAGGAAGGAUAUGAG", "modifications": "2'-F pyrimidines (all C and U)"}}, "key": {"[1]": {"biological_target": "T1, ICAM-1 extracellular domain (C-terminal His) (Homo sapiens, UniProt P05362 SEQ:1-453)", "T1 sequence (P05362 28-480)": "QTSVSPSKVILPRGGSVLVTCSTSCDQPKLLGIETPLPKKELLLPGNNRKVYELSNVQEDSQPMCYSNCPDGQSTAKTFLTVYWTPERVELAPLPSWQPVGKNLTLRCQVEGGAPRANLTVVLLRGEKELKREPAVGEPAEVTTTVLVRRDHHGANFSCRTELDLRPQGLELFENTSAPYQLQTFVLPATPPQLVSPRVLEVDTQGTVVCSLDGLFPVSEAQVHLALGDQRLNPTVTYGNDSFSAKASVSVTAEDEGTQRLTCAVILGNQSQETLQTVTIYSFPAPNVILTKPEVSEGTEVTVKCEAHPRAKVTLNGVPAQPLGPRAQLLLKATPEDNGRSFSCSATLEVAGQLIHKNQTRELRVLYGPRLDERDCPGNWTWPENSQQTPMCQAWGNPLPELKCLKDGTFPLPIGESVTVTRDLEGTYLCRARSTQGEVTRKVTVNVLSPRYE", "test": "ITC; 37 C, potassium phosphate; 7.96 nM at 33 C", "settings": "tags: C-terminal His6; Ray-Biotech 228-21751-2", "protocol": "(§1) Aptamers as disclosed herein were selected to perform at 37° C. in the SELEX selection process. Further, all experiments relating to performance of aptamers executed on cells grown in culture were performed at 37° C. as well, as this was the appropriate temperature for optimal cell growth and corresponds to body temperature. However, the aptamers are intended to function on the inner surface of the nasal cavity in vivo and said nasal cells show a slightly lower average temperature of 33° C. As such it was important to ensure that the aptamers of the present invention perform at both temperatures. Accordingly, binding analysis was executed using isothermal titration calorimetry (ITC) using Nano ITC (Low Volume of TA Instruments) and following user instructions for the NasD-4.1 aptamer (SEQ ID NO: 244) at 37° C. as well as at 33° C. Specific mutations in sequence (SEQ ID NO: 264-270) were tested to analyze the impact of temperature and secondary structure. 600 nM concentration of the NasD-4.1 aptamer was injected in 11 injections of 4.88 uL each into a 100 nM concentration of ICAM-1 receptor protein in a volume of 193 uL. The same concentration of mutant aptamer was injected into buffer, as well as buffer was injected into the same amount of protein as controls. The ITC experiments were performed at 33° C. and 37° C. in potassium phosphate buffer."}, "[2]": {"biological_target": "T1, ICAM-1 extracellular domain (C-terminal …)", "test": "SPR; aptamer immobilized on gold chip; 250 nM ICAM-1", "settings": "tags: C-terminal His6; Ray-Biotech 228-21751-2", "protocol": "(§2) After conjugation of the cystamine moeities to phosphoramidate bonds at the 5′ phosphate group, the aptamer was immobilized on a gold chip by depositing an aliquot of 10 nL of aptamer solution at a concentration of 10 μM onto the surface of the chip. The gold reduces the cystamine to a pair of thiols and then catalyzes the reduction reaction that results in the covalent bond between the gold surface and the thiol groups of the modified aptamers.\n(§3) Solutions of 200 μL of ICAM-1 protein or human serum albumin were flown over the gold chip at a concentration of 250 nM and a flow rate of 50 μL/min using an Openplex Surface Plasmon Resonance System (Horiba, Kyoto, Kyoto, Japan). Thus, the association phase lasted for 4 minutes after injection and was immediately followed by the disassociation phase. The total resonance of the negative control aptamer was subtracted from the total resonance observed for each of the candidate aptamers. The result corresponds to the resonance contribution due to the binding of the protein to the aptamer.\nwhere Rmax is the maximum resonance due to binding observed, and c is the concentration of the injectant. Finally, the dissociation equilibrium constant kD was calculated as the ratio of kd over ka (see Table 2). The low nanomolar kD values obtained for the different aptamers confirm the strong binding affinity of such molecules towards ICAM-1 and validate the aptamer selection process described in Example 1. As used herein, “kd” refers to the dissociation rate, “ka” refers to the association rate, and “kD” refers to the dissociation equilibrium constant."}, "human serum albumin": {"biological_target": "human serum albumin (Homo sapiens, UniProt P02768 P02768:25-609)", "sequence (P02768 25-609, one chain of several)": "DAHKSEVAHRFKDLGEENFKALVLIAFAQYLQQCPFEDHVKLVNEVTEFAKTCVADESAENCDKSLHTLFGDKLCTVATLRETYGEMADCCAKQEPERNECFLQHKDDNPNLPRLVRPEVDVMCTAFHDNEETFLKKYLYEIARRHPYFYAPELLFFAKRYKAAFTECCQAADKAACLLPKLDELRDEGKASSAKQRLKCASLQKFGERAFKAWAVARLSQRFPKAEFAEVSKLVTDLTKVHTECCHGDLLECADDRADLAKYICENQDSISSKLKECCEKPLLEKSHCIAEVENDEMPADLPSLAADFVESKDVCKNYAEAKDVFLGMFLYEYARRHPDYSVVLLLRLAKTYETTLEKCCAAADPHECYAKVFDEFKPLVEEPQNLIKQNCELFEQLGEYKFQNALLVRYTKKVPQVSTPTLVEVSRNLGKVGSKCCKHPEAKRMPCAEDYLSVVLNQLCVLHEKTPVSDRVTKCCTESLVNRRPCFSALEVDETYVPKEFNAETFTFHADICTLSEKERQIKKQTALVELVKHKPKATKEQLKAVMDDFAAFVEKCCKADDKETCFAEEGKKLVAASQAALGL", "test": "SPR; 250 nM HSA, no significant binding", "protocol": "as §2, §3"}, "[3]": {"biological_target": "T1, ICAM-1 extracellular domain (C-terminal …)", "test": "ITC; 37 C, potassium phosphate; 1.27 nM at 33 C (tighter)", "settings": "tags: C-terminal His6; Ray-Biotech 228-21751-2", "protocol": "as §1"}, "[4]": {"biological_target": "T1, ICAM-1 extracellular domain (C-terminal …)", "test": "ITC; 37 C, potassium phosphate; 37 nM at 33 C (weaker)", "settings": "tags: C-terminal His6; Ray-Biotech 228-21751-2", "protocol": "as §1"}, "ICAM-1 (on cells) [5]": {"biological_target": "T2, ICAM-1 (on cells) (Homo sapiens, UniProt P05362 SEQ:28-532)", "T2 sequence (P05362 28-532)": "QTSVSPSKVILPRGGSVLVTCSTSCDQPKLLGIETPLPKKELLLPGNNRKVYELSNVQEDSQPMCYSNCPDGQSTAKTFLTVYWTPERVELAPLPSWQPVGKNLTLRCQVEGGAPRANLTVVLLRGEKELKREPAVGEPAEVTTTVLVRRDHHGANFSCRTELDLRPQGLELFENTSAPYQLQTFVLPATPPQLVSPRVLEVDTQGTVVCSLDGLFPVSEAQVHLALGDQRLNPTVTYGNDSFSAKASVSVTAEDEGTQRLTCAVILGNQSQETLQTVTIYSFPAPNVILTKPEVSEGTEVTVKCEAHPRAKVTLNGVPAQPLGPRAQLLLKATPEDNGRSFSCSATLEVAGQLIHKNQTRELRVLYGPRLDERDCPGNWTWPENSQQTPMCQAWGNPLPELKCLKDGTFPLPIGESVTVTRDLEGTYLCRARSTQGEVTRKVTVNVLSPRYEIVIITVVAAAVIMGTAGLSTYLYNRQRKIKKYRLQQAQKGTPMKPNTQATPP", "test": "HNEpC cells, 2 h, 500 nM; RH-30 below 500 RFU", "settings": "tags: endogenous on HNEpC (PromoCell C-21060) or H1-HeLa cells; label: FAM in cell assay; hairpin with dangling 5' and 3' ends", "protocol": "(§4) Fluorescein amidite (FAM)-conjugated DNA aptamers were incubated at 500 nM onto cells cultured in 24-well plates for 4 hours at 37° C. in 5% CO2. At specific timepoints (0.5h, 1h, 2h, 4h), the cell media was aspirated, and the wells were washed three times with 1× selection buffer. To elute and lyse the cells, 200ul of 6M urea was applied to the well and incubated at 37° C. for 5 minutes. The urea-aptamer solution was transferred and measured in a 96-well microplate reader at 495 nm absorbance. Samples were measured in triplicate. FIGS. 23 to 26 show the results.\nMaximal binding can be seen after 2 hours, wherein the absolute number of the truncated sequence bound to HNEpC is 2.5 times of the number of the parent aptamer bound. Binding to RH-30 cells is similar for both aptamers, truncated sequence (SEQ ID NO: 244) and parent sequence (SEQ ID NO: 104) and below 500 RFU."}, "[6]": {"biological_target": "T1, ICAM-1 extracellular domain (C-terminal …)", "test": "ITC; 37 C, potassium phosphate; 8.86 nM at 33 C", "settings": "tags: C-terminal His6; Ray-Biotech 228-21751-2; label: FAM in cell assay; hairpin with dangling 5' and 3' ends", "protocol": "as §1"}, "[7]": {"biological_target": "T1, ICAM-1 extracellular domain (C-terminal …)", "test": "ITC; 37 C, potassium phosphate; 10 nM at 33 C", "settings": "tags: C-terminal His6; Ray-Biotech 228-21751-2", "protocol": "as §1"}, "[8]": {"biological_target": "T1, ICAM-1 extracellular domain (C-terminal …)", "test": "ITC; 37 C, potassium phosphate; 9.09 nM at 33 C", "settings": "tags: C-terminal His6; Ray-Biotech 228-21751-2", "protocol": "as §1"}, "[9]": {"biological_target": "T1, ICAM-1 extracellular domain (C-terminal …)", "test": "ITC; 37 C, potassium phosphate; 14.3 nM at 33 C", "settings": "tags: C-terminal His6; Ray-Biotech 228-21751-2", "protocol": "as §1"}, "[10]": {"biological_target": "T1, ICAM-1 extracellular domain (C-terminal …)", "test": "ITC; 37 C, potassium phosphate; 18.1 nM at 33 C", "settings": "tags: C-terminal His6; Ray-Biotech 228-21751-2", "protocol": "as §1"}, "ICAM-1 (on cells) [11]": {"biological_target": "T2, ICAM-1 (on cells)", "test": "HNEpC cells, FAM-RNA 500 nM, 37 C; qPCR binding higher than to HEK293", "settings": "tags: endogenous on HNEpC (PromoCell C-21060) or H1-HeLa cells"}, "ICAM-1 (on cells) [12]": {"biological_target": "T2, ICAM-1 (on cells)", "test": "HNEpC cells, 0.5 h, 500 nM; RH-30 hardly detectable", "settings": "tags: endogenous on HNEpC (PromoCell C-21060) or H1-HeLa cells; label: FAM", "protocol": "as §4\nMaximal binding of the truncated sequence Nas.D-5 (SEQ ID NO: 245) can be observed after 0.5 hours, wherein more than 2 times of the truncated aptamers bound to HNEpC compared to the parent aptamer. Binding to RH-30 cells was hardly detectable (FIG. 25). […] The absolute number of bound oligonucleotides of the truncated aptamer (SEQ ID NO: 246) is again higher than the number of bound oligonucleotides of the parent sequence (SEQ ID NO: 108)."}}}
{"binder": "GTGCTCTCTTGTCAATCTATGACTGCTGGAGAGGAAG (ssDNA)", "note": "[NasD-4.1 State 5]", "values": [{"measurement": "Kd", "setting": "[1]", "value": 5.14, "unit": "nM"}]}
{"binder": "B1", "values": [{"measurement": "Kd", "setting": "[2]", "value": 64.4, "unit": "nM"}, {"measurement": "binding result", "setting": "human serum albumin", "value": "no binding"}]}
{"binder": "GTGCTCAGTTGTCAATCTAAGACTGCTGCTGAGGAAG (ssDNA)", "note": "[NasD-4.1 State 6]", "values": [{"measurement": "Kd", "setting": "[3]", "value": 18.6, "unit": "nM"}]}
{"binder": "GTGCTCACTTGTCAATCTATGACTGCTGCTGAGTAAG (ssDNA)", "note": "[NasD-4.1 State 4]", "values": [{"measurement": "Kd", "setting": "[4]", "value": 6.39, "unit": "nM"}]}
{"binder": "GTGCTCAGTTGTCAATCTATGACTGCTGCTGAGGAAG (ssDNA)", "note": "[Nas.D-4.1]", "values": [{"measurement": "binding signal", "setting": "ICAM-1 (on cells) [5]", "value": 2.5, "unit": "fold vs parent Nas.D-4"}, {"measurement": "Kd", "setting": "[6]", "value": 11.2, "unit": "nM"}]}
{"binder": "GAGCTCAGTTGTCAATCTATGACTGCTGCTGAGGAAG (ssDNA)", "note": "[NasD-4.1 State 2]", "values": [{"measurement": "Kd", "setting": "[7]", "value": 102, "unit": "nM"}]}
{"binder": "GTGCTCAGTTGTCAAAGAATGACTGCTGCTGAGGAAG (ssDNA)", "note": "[NasD-4.1 State 7]", "values": [{"measurement": "Kd", "setting": "[8]", "value": 6.77, "unit": "nM"}]}
{"binder": "GTGCTCACTTGTCAATCTATGACTGCTGCTCAGGAAG (ssDNA)", "note": "[NasD-4.1 State 3]", "values": [{"measurement": "Kd", "setting": "[9]", "value": 40.4, "unit": "nM"}]}
{"binder": "GTGGTCAGTTGTGAATCTATGACTGCTGCTGAGGAAG (ssDNA)", "note": "[NasD-4.1 State 1]", "values": [{"measurement": "Kd", "setting": "[10]", "value": 2.83, "unit": "nM"}]}
{"binder": "B2", "values": [{"measurement": "binding signal", "setting": "ICAM-1 (on cells) [11]", "value": 11, "unit": "% surface bound"}, {"measurement": "Kd", "setting": "[2]", "value": 44.3, "unit": "nM"}, {"measurement": "binding result", "setting": "human serum albumin", "value": "no binding"}]}
{"binder": "GGGCGCACCGTTTACGCGTAAATCGGTCCGCTATT (ssDNA)", "note": "[Nas.D-5.1]", "values": [{"measurement": "binding signal", "setting": "ICAM-1 (on cells) [12]", "value": "> 2", "unit": "fold vs parent Nas.D-5"}]}
{"binder": "B3", "values": [{"measurement": "binding signal", "setting": "ICAM-1 (on cells) [11]", "value": 12, "unit": "% surface bound"}, {"measurement": "Kd", "setting": "[2]", "value": 28.4, "unit": "nM"}, {"measurement": "binding result", "setting": "human serum albumin", "value": "no binding"}]}
{"binder": "B4", "values": [{"measurement": "binding signal", "setting": "ICAM-1 (on cells) [11]", "value": 17, "unit": "% surface bound"}, {"measurement": "Kd", "setting": "[2]", "value": 70.2, "unit": "nM"}, {"measurement": "binding result", "setting": "human serum albumin", "value": "no binding"}]}
